According to the supplement of paper PMC9732359:
± gives the uncertainty stated by the source.

experiment: protein stability index of a GFP-peptide fusion (yeast GPS) (PSI 1-4); higher = more stable; sorted into four equal gates, so the index is relative within each strain; conditions: pdr5∆
Summary of the method: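 Tiled yeast protein peptides of 17 residues were each joined downstream of GFP, on plasmids that also express Cherry. The pooled library was maintained in yeast, and mid-log cultures in leucine-free medium were sorted into four equal gates on the GFP/Cherry ratio. Plasmids from every gate were amplified by PCR and sequenced on Illumina, with barcodes linking reads to strains. The protein stability index of a peptide is its gate-number-weighted read frequency summed over the gates.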

Compared with NGALDPKMGVSSSSLEC [RPO31], NGCSGADVKGVCTEAGM [RPT6] is higher in protein stability index: 3.41 ± 0.049 for the first, 3.7 ± 0.16 for the second.

First: NGDLTVSLCAKNMGLVP [SSN2]
Second: NGEEIVGFWKDDGDDED [MTR3]
The protein stability index of the first is lower: 2.23 ± 0.079 for the first, 2.66 ± 0.074 for the second.

Going from NGITLALIDAGISMFDY [SKI6] to NGKDNNNESNKNNNGDE [MED2], the protein stability index rises from 1.51 ± 0.042 to 3.17 ± 0.042.

NGKIWVKCEELSNTLAC [RRP40] and NGLLNEISRLKTSLSIK [SMC2] are within error of each other in protein stability index: 3.24 ± 0.13 for the first, 3.25 ± 0.11 for the second.

Compared with NGNLTSNQLISNYAASN [SWI1], NGVNVQIDQLNRLLPNL [GRR1] is higher in protein stability index: 2.89 ± 0.1 for the first, 3.07 ± 0.05 for the second.

First: NHFSLSYKDSGLWGFST [COR1]
Second: NHWRQNKGRAVYINPSG [BRR2]
The protein stability index of the first is higher: 3.23 ± 0.073 for the first, 2.78 ± 0.089 for the second.

NIATQQNMQQSLQQMQH [GAL11] and NIDTITDAMTESQPKQT [MCD1] are within error of each other in protein stability index: 2.92 ± 0.091 for the first, 3.02 ± 0.11 for the second.

Compared with NIKLLNNRMGSYDCTGV [POP1], NIKSSISNGNLATGPNL [YOR098C/NUP1] is higher in protein stability index: 2.8 ± 0.059 for the first, 3.18 ± 0.084 for the second.

NILWRIADKTTYDKETI [SIR4] and NIMSASGGLFGNQQQQL [YGL172W/NUP49] are within error of each other in protein stability index: 3.16 ± 0.084 for the first, 3.12 ± 0.086 for the second.

Going from NINAKMETRINILLRER [YIL149C/MLP2] to NIPWDVPGMPAPIKKII [PRP8], the protein stability index falls from 3.35 ± 0.12 to 2.91 ± 0.19.

NISKSRAKPVTNSSILL [RRP6] and NISRDFQSYIVSSLPGS [COR1] are within error of each other in protein stability index: 2.23 ± 0.065 for the first, 2.14 ± 0.095 for the second.

Going from NIVNDFTPEEEAAIRRE [SKP1] to NKEMHTDLGKDIPFFPS [SSN2], the protein stability index falls from 2.73 ± 0.079 to 2.01 ± 0.066.

Going from NKIDQSLQYIERQQDEL [YJL041W/NSP1] to NKLSSILQNEHDYWNKI [SRB4], the protein stability index falls from 3.19 ± 0.12 to 2.41 ± 0.05.

First: NKSISDEITEDMFEMSD [SSN2]
Second: NKYQYSLKQYAGNLITT [SRP68]
The protein stability index of the first is higher: 3.1 ± 0.075 for the first, 1.44 ± 0.14 for the second.

NLCGDISLEALNFYITN [SIR3] and NLDFDPRDVIKGKDFEI [FAS1] are within error of each other in protein stability index: 2.73 ± 0.059 for the first, 2.9 ± 0.29 for the second.

Compared with NLDNLQKVSQLESADKQ [POP4], NLEFDSTNHPDYDVSKK [SRP14] is higher in protein stability index: 2.59 ± 0.1 for the first, 3.25 ± 0.12 for the second.

NLENMSIQDTSTVAKNV [YCG1] and NLFGATANANKPAFSFG [YJL041W/NSP1] are within error of each other in protein stability index: 3.12 ± 0.051 for the first, 3.18 ± 0.081 for the second.

Going from NLKQANNVAYGKKRFRV [SMC4] to NLPILKNHFRKHWQERV [RPL13A], the protein stability index rises from 2.62 ± 0.077 to 2.83 ± 0.073.

First: NLRHERNSLETKLTTCK [YIL149C/MLP2]
Second: NMFELAQQLVGVYKRDN [SMC4]
The protein stability index of the first is higher: 2.79 ± 0.14 for the first, 1.61 ± 0.12 for the second.

First: NMFGDYSNEPFNTNFDD [SNF6]
Second: NMGMNNMNNGGKELDSL [PGD1]
The protein stability index of the first is lower: 2.78 ± 0.059 for the first, 3.64 ± 0.24 for the second.

First: NMMEHWDYLQLTVAMYI [RPO31]
Second: NMVSLRGRNDTLERVHL [GRR1]
The protein stability index of the first is lower: 2.2 ± 0.063 for the first, 3.22 ± 0.14 for the second.

Compared with NNDKREIQEELERFNKR [SMC1], NNDQKRQQAYKTAQTLD [YJL041W/NSP1] is lower in protein stability index: 3.52 ± 0.13 for the first, 3.17 ± 0.063 for the second.

First: NNHNDSNRLHPPDIHPN [GRR1]
Second: NNMLYPREDKENNRLLF [RPB9]
The protein stability index of the first is lower: 2.82 ± 0.044 for the first, 3.43 ± 0.16 for the second.

First: NNNDNDANRNANNIVNI [GRR1]
Second: NNNDNNNSNTVASSTNF [SWI1]
The protein stability index of the first is lower: 3 ± 0.05 for the first, 3.089 ± 0.03 for the second.

NNNETSKPAFSFGAKSD [YJL041W/NSP1] and NNNNNNNNNSTRPQMPS [GRR1] are within error of each other in protein stability index: 3.1 ± 0.083 for the first, 3.041 ± 0.017 for the second.

NNNPLQQQSSQNTVPNV [GAL11] and NNPDMMIQPPQQGQNMS [ROX3] are within error of each other in protein stability index: 2.86 ± 0.041 for the first, 2.92 ± 0.12 for the second.

Sequence NNSAPNNTNNANSSITP [YJL041W/NSP1] has a protein stability index of 2.97 ± 0.11.
